# Measured values reported in patent US7029861B1, “LPS-response gene compositions and methods” (Board of Regents, The University of Texas System, priority 1998, dated 2006).
# Tests used:
# [1] = target: flag-tagged Tlr4^Lps-n cytoplasmic domain construct, residues 630-835 (mouse) (UniProt Q9QUK6); assay: equilibrium specific binding of M2 at a fixed concentration to RAW 264.7 clones, mean of 7 clones
# [2] = target: flag-tagged Tlr4^Lps-d, residues 22-835 (P712H), expressed in RAW 264.7 cells (mouse) (UniProt Q9QUK6); assay: saturation isotherm of 125I-M2 on transfected RAW 264.7 cells, nonlinear regression
# [3] = target: flag-tagged Tlr4^Lps-d cytoplasmic domain construct, residues 630-835 (P712H) (mouse) (UniProt Q9QUK6); assay: equilibrium specific binding of M2 at a fixed concentration to RAW 264.7 clones, mean of 8 clones
# [4] = target: flag-tagged Tlr4 ectodomain construct, residues 22-660 (no cytoplasmic domain) (mouse) (UniProt Q9QUK6); assay: equilibrium specific binding of M2 at a fixed concentration to RAW 264.7 clones, mean of 9 clones
# [5] = target: flag-tagged Tlr4^Lps-d, residues 22-835 (P712H), expressed in RAW 264.7 cells (mouse) (UniProt Q9QUK6); assay: saturation isotherm of 125I-M2 (50 ng/ml to 20 ug/ml) on transfected RAW 264.7 cells
# [6] = target: flag-tagged Tlr4^Lps-n, residues 22-835, expressed in RAW 264.7 cells (mouse) (UniProt Q9QUK6); assay: equilibrium specific binding of M2 at a fixed concentration to RAW 264.7 clones, mean of 10 clones
# [7] = target: flag-tagged Tlr4^Lps-d, residues 22-835 (P712H), expressed in RAW 264.7 cells (mouse) (UniProt Q9QUK6); assay: as above
substance,measurement,setting,value
monoclonal antibody M2 (obtained from Sigma),Copies/cell,[1],12000 copies/cell
same,binding sites per cell (binding sites per cell),[2],28100
same,Copies/cell,[3],9900 copies/cell
same,Copies/cell,[4],14000 copies/cell
same,% saturation of the surface receptor at the highest antibody concentration,[5],56.4%
same,Copies/cell,[6],21000 copies/cell
same,Copies/cell,[7],20000 copies/cell
